The values below come from PMC6235889, “Conformational ensemble of the human TRPV3 ion channel” (Nature Communications, 2018).

In general, stoichiometry N refers to a count of units in the complex or per binding partner.

This data set concerns the molecule itself. Nature of the data set: cryo-EM structure; apo TRPV3 T96A in PMAL-C8 amphipol, 50 mM Tris pH 8, 150 mM NaCl; Titan Krios 300 keV; C4 symmetry, ~3.4 Å.

B1: full-length human TRPV3 containing the point mutation T96A (natural protein, UniProt Q8NET8-1 1-790, looked up)
chain: MKAHPKEMVPLMGKRVAAPSGNPAILPEKRPAEITPTKKSAHFFLEIEGFEPNPTVAKTSPPVFSKPMDSNIRQCISGNCDDMDSPQSPQDDVTEAPSNPNSPSAQLAKEEQRRKKRRLKKRIFAAVSEGCVEELVELLVELQELCRRRHDEDVPDFLMHKLTASDTGKTCLMKALLNINPNTKEIVRILLAFAEENDILGRFINAEYTEEAYEGQTALNIAIERRQGDIAALLIAAGADVNAHAKGAFFNPKYQHEGFYFGETPLALAACTNQPEIVQLLMEHEQTDITSRDSRGNNILHALVTVAEDFKTQNDFVKRMYDMILLRSGNWELETTRNNDGLTPLQLAAKMGKAEILKYILSREIKEKRLRSLSRKFTDWAYGPVSSSLYDLTNVDTTTDNSVLEITVYNTNIDNRHEMLTLEPLHTLLHMKWKKFAKHMFFLSFCFYFFYNITLTLVSYYRPREEEAIPHPLALTHKMGWLQLLGRMFVLIWAMCISVKEGIAIFLLRPSDLQSILSDAWFHFVFFIQAVLVILSVFLYLFAYKEYLACLVLAMALGWANMLYYTRGFQSMGMYSVMIQKVILHDVLKFLFVYIVFLLGFGVALASLIEKCPKDNKDCSSYGSFSDAVLELFKLTIGLGDLNIQQNSKYPILFLFLLITYVILTFVLLLNMLIALMGETVENVSKESERIWRLQRARTILEFEKMLPEWLRSRFRMGELCKVAEDDFRLCLRINEVKWTEWKTHVSFLNEDPGPVRRTDFNKIQDSSRNNSKTTLNAFEEVEEFPETSV
notes: Transient receptor potential vanilloid channel 3 (TRPV3), human, full length, with the stabilising point mutation T96A; Homotetramer; Residues 1-117, which include T96A, were not resolved in the reconstructions; No removal of the FLAG tag is described; also called hTRPV3; TRPV3_(T96A); source: Sf9 insect cells (baculovirus), purified (anti-FLAG resin, size exclusion), reconstituted in PMAL-C8 …
For B1, the “stoichiometry N” value worked out at 4.
